Source: the supplement of paper PMC7877785
± gives the uncertainty stated by the source.

Test: self-splicing fitness, log relative to wild type (ln ratio); higher = more splicing; Tetrahymena group I intron in knt gene, E. coli kanamycin selection, DiMSum; sequences stand for … in CUCUCU…GGAGGGAAAAGUUAUCAGGCAUGCACCUGGUAGCUAGUCUUUAAACCAAUAGAUUGCAUCGGUUUAAAAGGCAAGACCGUCAAAUUGCGGGAAAGGGGUCAACAGCCGUUCAGUACCAAGUCUCAGGGGAAACUUUGAGAUGGCCUUGCAAAGGGUAUGGUAAUAAGCUGACGGACAUGGUCCUAACCACGCAGCCAAGUCCUAAGUCAACAGAUCUUCUGUUGAUAUGGAUGCAGUUCACAGACUAAAUGUCGGUCGGGGAAGAUGUAUUCUUCUCAUAAGAUAUAGUCGGACCUCUCCUUAAUGGGAGCUAGCGGAUGAAGUGAUGCAACACUGGAGCCGCUGGGAACUAAUUUGUAUGCGAAAGUAUAUUGAUUAGUUUUGGAGUACUCGUGGUCG
How it was run: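 DiMSum derived fitness as the error-weighted combination of fold changes across replicates, kanamycin versus no kanamycin, normalised to wild type. E. coli BL21(DE3) held the library, which randomised all eight P1ex-region intron nucleotides within the knt kanamycin-resistance gene on pET-22b(+). Six replicate transformations grew overnight at 37°C or 30°C on LB agar with or without 25 μg/mL kanamycin, also containing 100 μg/mL carbenicillin, 50 μM IPTG and 0.2% rhamnose, and pooled colonies were amplicon-sequenced on an Illumina HiSeq 2500.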

Sequence	self-splicing fitness (ln) (30 °C)	self-splicing fitness (ln) (37 °C)
UGAUAGCAAUAUUACGACUC	-3.07 ± 0.21	-1.46 ± 0.18
UGAUAGCAAUAUUACGAGUG	-1.14 ± 0.084	-0.545 ± 0.12
UGAUAGCAAUAUUACGCAAG		-2.3 ± 0.26
UGAUAGCAAUAUUACGCACG	-1.41 ± 0.3	-0.216 ± 0.19
UGAUAGCAAUAUUACGCGUU	-2.9 ± 0.24	-2.54 ± 0.39
UGAUAGCAAUAUUACGCUCA	0.162 ± 0.15	-0.26 ± 0.15
UGAUAGCAAUAUUACGCUUA	-2.07 ± 0.12	-0.143 ± 0.12
UGAUAGCAAUAUUACGGACA	-0.237 ± 0.1	0.61 ± 0.14
UGAUAGCAAUAUUACGGGCC	-3.78 ± 0.42	
UGAUAGCAAUAUUACGGUAU	-3.75 ± 0.22	-1.92 ± 0.18
UGAUAGCAAUAUUACGGUCU	-0.913 ± 0.12	-0.257 ± 0.15
UGAUAGCAAUAUUACGGUGU	-3.45 ± 0.18	-3.09 ± 0.24
UGAUAGCAAUAUUACGUAAA	-3.07 ± 0.16	-1.64 ± 0.14
UGAUAGCAAUAUUACGUCUU	-1.22 ± 0.092	-1.33 ± 0.09
UGAUAGCAAUAUUACGUGUA	-2.89 ± 0.18	-1.38 ± 0.13
UGCAAGCAAUAUUACGAACG	-0.0871 ± 0.083	0.961 ± 0.11
UGCAAGCAAUAUUACGAAGA	-1.99 ± 0.27	-2.3 ± 0.31
UGCAAGCAAUAUUACGACCA	-0.338 ± 0.37	-0.273 ± 0.3
UGCAAGCAAUAUUACGAUAC	-2.87 ± 0.23	-2.24 ± 0.37
UGCAAGCAAUAUUACGAUGU	-2.73 ± 0.16	-2.14 ± 0.19
UGCAAGCAAUAUUACGCACA	-1.38 ± 0.12	-0.954 ± 0.13
UGCAAGCAAUAUUACGCCGA	-1.38 ± 0.15	-0.485 ± 0.14
UGCAAGCAAUAUUACGCUGU	-3.03 ± 0.19	-2.93 ± 0.33
UGCAAGCAAUAUUACGGAAG	-3.38 ± 0.14	-1.44 ± 0.1

Sequence	self-splicing fitness (ln) (30 °C)	self-splicing fitness (ln) (37 °C)
UGCAAGCAAUAUUACGGAUG	-1.25 ± 0.065	-0.565 ± 0.078
UGCAAGCAAUAUUACGGCGG	-0.854 ± 0.046	-0.116 ± 0.068
UGCAAGCAAUAUUACGGGGG	-3.16 ± 0.16	-2.04 ± 0.15
UGCAAGCAAUAUUACGUGCA	-3.02 ± 0.21	-3.18 ± 0.35
UGCAAGCAAUAUUACGUGUU	-2.22 ± 0.072	-1.52 ± 0.098
UGCAAGCAAUAUUACGUUAU	-3.76 ± 0.15	-1.3 ± 0.1
UGCAAGCAAUAUUACGUUUC	-4.31 ± 0.26	-3.24 ± 0.17
UGCCAGCAAUAUUACGAACA	-0.458 ± 0.14	0.334 ± 0.17
UGCCAGCAAUAUUACGAACC	-3.55 ± 0.43	-2.29 ± 0.5
UGCCAGCAAUAUUACGAGCA	-1.75 ± 0.26	-0.682 ± 0.27
UGCCAGCAAUAUUACGAGGC	-4.02 ± 0.42	-1.44 ± 0.18
UGCCAGCAAUAUUACGAUCG	-0.0468 ± 0.067	0.0388 ± 0.079
UGCCAGCAAUAUUACGAUUA	-0.904 ± 0.075	-0.743 ± 0.089
UGCCAGCAAUAUUACGCAAC		-0.966 ± 0.42
UGCCAGCAAUAUUACGCACA	-0.53 ± 0.093	-0.708 ± 0.15
UGCCAGCAAUAUUACGCAGU	-4.11 ± 0.24	-2.41 ± 0.2
UGCCAGCAAUAUUACGCGAA	-1.33 ± 0.11	0.357 ± 0.11
UGCCAGCAAUAUUACGCGCG	-0.853 ± 0.083	-0.528 ± 0.1
UGCCAGCAAUAUUACGCGGG	-3.4 ± 0.2	-2.44 ± 0.22
UGCCAGCAAUAUUACGCGUC	-2.05 ± 0.12	-1.8 ± 0.15
UGCCAGCAAUAUUACGCUUG	-2.85 ± 0.16	-2.33 ± 0.19
UGCCAGCAAUAUUACGGAAA	-1.8 ± 0.1	-0.0875 ± 0.13
UGCCAGCAAUAUUACGGGCG	-3.1 ± 0.16	-2.73 ± 0.21
UGCCAGCAAUAUUACGUCUA	-0.347 ± 0.081	-0.671 ± 0.089
